Bounds are passed on as bounds.

This is an account of results in article PMC3025530.

In assay [1] the target is ADAM12-S (shorter secreted form of ADAM12), full-length (human) (UniProt O43184). Put plainly: enzyme inhibition kinetics.
The target in assay [2] is ADAM12-Cat (truncated ADAM12 protein consisting of only the pro and catalytic domains) (human) (UniProt O43184). Put plainly: enzyme inhibition kinetics.

Turning to N-TIMP-1[T98L] (domain or fragment), the Ki in assay [1] was 21.7 nM; in assay [2], 11.2 nM. On to “N-TIMP-1[TIMP-2-ABloop] (domain or fragment)”, for which the Ki was over 500 nM in assay [1] and 247 nM in assay [2]. On to “N-TIMP-1[TIMP-3-ABloop] (domain or fragment)”, for which the Ki in assay [1] amounted to 66 nM.

In assay [1], N-TIMP-1[V4A] (domain or fragment) came in with a Ki of 190 nM.

N-TIMP-1[V4S] (domain or fragment) returned a Ki in assay [1] of 122 nM. For the substance “N-TIMP-1^TACE (V4S/V69L/T98L/TIMP-3-ABloop) (domain or fragment)”, the Ki in assay [1] amounted to 16.4 nM; in assay [2] it was 1.9 nM. On to “N-TIMP-2 (N-terminal domain of TIMP-2), wild-type (domain or fragment)”, for which the inhibitory constant (Ki) in assay [1] was 69.7 nM; in assay [2], 5.5 nM. For “N-TIMP-2-ΔABloop (N-TIMP-2 with the AB-loop deleted) (domain or fragment)”, in that order: 28.1 nM and 2.5 nM.

Consider “N-TIMP-2^TACE (S2T/A70S/V71L/TIMP-3-ABloop) (domain or fragment)”, for which the Ki in assay [2] was determined as 0.65 nM.

Consider “N-TIMP-2^TACE[F34G] (domain or fragment)”, for which the Ki in assay [1] is 18 nM. In the case of “N-TIMP-2^TACE[L100E] (domain or fragment)”, the Ki in assay [1] was 22 nM; in assay [2] it was 4.1 nM.

A word on the Ki: it is the dissociation constant of the complex between target and ligand, obtained from inhibition or displacement. Read a high Ki as weaker binding.
